For this assay, the target named is megalin (human (endogenous in primary PTECs)) (UniProt P98164).
Chain of UniProt P98164 (P98164 26-4655): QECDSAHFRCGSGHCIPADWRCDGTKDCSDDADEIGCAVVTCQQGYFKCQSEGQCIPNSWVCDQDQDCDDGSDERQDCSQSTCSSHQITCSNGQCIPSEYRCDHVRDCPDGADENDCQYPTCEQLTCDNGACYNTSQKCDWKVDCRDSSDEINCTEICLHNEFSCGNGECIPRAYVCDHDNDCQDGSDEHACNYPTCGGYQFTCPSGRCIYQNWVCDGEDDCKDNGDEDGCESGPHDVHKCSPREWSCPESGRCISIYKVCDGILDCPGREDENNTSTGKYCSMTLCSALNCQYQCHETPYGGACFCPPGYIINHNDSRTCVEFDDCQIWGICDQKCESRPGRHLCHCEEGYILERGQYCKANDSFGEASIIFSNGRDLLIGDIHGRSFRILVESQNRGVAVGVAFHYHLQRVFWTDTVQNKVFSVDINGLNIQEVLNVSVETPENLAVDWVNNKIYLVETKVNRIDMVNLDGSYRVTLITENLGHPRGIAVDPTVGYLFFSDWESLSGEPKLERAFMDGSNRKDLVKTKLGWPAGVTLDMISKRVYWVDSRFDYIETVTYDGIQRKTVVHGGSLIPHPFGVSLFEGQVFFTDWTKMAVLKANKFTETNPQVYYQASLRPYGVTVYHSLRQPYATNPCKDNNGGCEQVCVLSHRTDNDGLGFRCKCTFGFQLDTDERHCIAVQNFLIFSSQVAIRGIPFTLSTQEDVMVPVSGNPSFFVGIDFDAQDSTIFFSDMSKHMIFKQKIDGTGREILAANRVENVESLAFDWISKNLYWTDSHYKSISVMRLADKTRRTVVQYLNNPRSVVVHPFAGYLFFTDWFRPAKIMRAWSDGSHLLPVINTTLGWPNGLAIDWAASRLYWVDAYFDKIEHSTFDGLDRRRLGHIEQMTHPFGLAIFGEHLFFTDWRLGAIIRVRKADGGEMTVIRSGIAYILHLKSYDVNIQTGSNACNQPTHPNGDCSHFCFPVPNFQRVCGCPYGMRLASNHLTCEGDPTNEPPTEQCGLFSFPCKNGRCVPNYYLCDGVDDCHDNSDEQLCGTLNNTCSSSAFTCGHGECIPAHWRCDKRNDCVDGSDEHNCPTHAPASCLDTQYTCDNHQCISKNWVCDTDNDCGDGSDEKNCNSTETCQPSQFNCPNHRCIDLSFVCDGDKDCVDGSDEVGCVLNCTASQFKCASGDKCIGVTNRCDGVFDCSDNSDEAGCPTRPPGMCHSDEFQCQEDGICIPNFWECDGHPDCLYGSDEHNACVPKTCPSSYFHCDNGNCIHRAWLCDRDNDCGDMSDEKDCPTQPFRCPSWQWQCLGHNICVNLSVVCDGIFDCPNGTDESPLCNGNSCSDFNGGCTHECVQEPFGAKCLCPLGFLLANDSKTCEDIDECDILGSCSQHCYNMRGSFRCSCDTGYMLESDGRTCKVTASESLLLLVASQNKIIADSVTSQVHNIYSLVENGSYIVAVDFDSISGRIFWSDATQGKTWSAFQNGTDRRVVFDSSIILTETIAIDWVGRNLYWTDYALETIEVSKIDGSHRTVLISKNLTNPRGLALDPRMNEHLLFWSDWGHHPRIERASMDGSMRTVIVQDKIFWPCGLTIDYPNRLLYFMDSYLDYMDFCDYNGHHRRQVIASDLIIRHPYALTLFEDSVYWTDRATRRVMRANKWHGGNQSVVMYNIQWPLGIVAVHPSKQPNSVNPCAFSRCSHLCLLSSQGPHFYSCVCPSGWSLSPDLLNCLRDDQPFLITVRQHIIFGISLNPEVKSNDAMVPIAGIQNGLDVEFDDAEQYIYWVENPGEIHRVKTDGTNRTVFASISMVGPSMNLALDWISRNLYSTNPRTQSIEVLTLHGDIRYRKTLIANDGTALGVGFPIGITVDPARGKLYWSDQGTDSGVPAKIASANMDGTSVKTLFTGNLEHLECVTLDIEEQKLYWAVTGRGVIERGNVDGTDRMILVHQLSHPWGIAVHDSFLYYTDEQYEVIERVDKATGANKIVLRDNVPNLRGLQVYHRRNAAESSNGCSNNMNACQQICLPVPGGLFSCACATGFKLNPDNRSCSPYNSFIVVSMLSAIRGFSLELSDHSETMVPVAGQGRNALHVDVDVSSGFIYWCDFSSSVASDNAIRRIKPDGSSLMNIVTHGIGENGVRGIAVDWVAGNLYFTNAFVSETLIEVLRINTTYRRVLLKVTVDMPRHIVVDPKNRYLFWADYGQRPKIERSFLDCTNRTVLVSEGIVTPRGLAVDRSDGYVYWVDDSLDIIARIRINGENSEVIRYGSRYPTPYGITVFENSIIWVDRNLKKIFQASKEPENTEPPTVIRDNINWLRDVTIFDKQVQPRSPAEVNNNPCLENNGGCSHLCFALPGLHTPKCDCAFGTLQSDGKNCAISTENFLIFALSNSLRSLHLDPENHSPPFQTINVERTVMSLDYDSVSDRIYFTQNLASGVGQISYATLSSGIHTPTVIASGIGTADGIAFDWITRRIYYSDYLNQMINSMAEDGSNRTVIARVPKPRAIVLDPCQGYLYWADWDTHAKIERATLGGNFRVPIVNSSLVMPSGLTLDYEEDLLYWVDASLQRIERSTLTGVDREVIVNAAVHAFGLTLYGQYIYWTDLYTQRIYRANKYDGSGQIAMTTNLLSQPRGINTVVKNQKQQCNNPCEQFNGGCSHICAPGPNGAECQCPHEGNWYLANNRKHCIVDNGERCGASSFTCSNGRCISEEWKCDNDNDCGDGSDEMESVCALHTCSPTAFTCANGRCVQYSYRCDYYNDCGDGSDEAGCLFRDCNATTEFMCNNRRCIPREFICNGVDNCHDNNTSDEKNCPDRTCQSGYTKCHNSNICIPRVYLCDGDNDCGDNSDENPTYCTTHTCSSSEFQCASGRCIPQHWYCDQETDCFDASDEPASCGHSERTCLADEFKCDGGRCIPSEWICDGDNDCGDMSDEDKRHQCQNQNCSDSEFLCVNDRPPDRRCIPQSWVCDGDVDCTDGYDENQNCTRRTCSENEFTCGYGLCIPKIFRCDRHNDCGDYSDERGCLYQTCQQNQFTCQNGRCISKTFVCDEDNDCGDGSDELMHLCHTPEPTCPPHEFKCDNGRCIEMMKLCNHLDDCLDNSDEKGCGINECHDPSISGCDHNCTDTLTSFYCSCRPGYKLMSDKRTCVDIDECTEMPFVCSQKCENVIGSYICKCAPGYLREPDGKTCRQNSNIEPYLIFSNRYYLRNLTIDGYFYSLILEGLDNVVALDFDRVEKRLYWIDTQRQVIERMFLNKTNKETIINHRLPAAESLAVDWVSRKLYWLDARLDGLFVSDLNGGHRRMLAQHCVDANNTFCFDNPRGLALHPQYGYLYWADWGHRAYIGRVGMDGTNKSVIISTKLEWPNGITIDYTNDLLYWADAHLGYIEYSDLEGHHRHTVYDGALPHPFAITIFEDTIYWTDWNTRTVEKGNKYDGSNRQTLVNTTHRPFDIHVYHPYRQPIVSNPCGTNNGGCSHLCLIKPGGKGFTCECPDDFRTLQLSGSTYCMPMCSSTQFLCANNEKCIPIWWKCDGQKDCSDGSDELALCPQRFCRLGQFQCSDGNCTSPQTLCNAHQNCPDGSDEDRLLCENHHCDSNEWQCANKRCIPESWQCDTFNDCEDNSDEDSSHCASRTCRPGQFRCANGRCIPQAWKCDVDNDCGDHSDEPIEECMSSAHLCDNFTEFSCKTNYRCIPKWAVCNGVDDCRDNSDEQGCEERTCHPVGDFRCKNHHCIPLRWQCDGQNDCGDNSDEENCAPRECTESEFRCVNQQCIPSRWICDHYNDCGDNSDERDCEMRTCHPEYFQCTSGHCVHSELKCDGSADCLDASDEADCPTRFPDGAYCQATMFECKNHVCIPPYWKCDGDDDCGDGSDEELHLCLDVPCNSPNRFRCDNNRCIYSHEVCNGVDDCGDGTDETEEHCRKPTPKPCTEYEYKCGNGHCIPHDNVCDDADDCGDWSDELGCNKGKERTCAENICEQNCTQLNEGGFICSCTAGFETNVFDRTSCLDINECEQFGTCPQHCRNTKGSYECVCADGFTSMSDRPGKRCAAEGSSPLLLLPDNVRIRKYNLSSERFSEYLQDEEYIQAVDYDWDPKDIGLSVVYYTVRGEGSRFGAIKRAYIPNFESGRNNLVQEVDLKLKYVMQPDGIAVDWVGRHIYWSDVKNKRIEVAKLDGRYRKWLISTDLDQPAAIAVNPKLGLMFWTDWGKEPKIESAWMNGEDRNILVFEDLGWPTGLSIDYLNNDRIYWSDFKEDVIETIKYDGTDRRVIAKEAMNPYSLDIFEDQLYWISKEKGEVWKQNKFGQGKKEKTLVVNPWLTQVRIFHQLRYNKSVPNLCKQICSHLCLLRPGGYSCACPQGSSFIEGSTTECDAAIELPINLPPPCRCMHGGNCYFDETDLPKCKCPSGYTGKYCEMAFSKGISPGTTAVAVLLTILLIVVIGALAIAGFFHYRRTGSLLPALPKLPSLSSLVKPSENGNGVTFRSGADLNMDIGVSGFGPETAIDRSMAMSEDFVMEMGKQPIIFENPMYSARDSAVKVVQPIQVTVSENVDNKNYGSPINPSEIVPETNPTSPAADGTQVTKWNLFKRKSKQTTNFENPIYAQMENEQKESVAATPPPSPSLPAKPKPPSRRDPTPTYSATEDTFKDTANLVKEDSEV

“Mixed type human vitamin D binding protein (from UniProt P02774 17-474) (natural protein)” returned an intrinsic clearance of 25OHD3 loss (CLint,25OHD3) from the perfusion medium of the PT-MPS with 3 uM DBP; fold-change with 1 uM RAP (megalin inhibitor) against no RAP, geometric mean of 5 donors (fold reduction) of 2.4.

The record behind these values is PMC6896899.
